Assay: soluble on expression in E. coli; label from the status in PepcDB or PDB records

Row | Sequence | soluble on expression in E. coli
1 | MQITQGQRIPLSTLIQGNDLTLSIVIKSAHVIDYVCFGVDANGKLSDDRYMIFFNQPTSPCNSVKQANGGDFQLALDSLPASIDRLVFTASIDGAGVMSDIQASHFSIQHQGREVARGEFSGATFAAEKAIMVADIYRKNGEWRIASNLQGYNAGLDALVGHFGGVADAPPAAPAAPARISLEKKIADAAPQLISLAKKAQVSLEKAKLTDTKARVGLVLDASGSMNPQYTRGHVQEVVDRLIPLAVHFDDDGALDCWAFGAKPQQLNAITLKNFQNFIKTDHGGWKDWELGSRINDEPKAMRMVIDYYKKSGDKTPVYILFISDGGVHQDREITKLMIEAAKLPIFWQFVGLGGRGYGILEKLDDMGGRVVDNCNFFALDRLDEVPEEKLYDLLMEEFPDWLNAAKGAGIL | not soluble
2 | MNIGNITISVIIPVYNASVTLPHCLESLHKQTYRNLELLFVDDCSTDESLYILTSYAEQFAEIDFTIRILQHERNRGVAAARNTALKCATGDYIYYVDADDSIEPHTLECLVNEINHKGLDIVGHEWYLTFNSNARYMKQPAYTTSVEALRKMMGGVMRWNLWLFLVRRSLYVENDIRFTEGLNMGEDMMVMMKLFICAGKVGIVHRPFYHYRQSNPESLTKIYSQEHIIQVANNVYEVEKYVNASAYADSLIEFIPFLKLNIKLPLLITDDKSHYEQWLECFPEANCYVMNNKLLPLRTRIIQWMAVKRYFILLRLYYRTVFKLVYGIIYKLEHHHHHH | not soluble
3 | MGSDKIHHHHHHMILFAGDPHGSYSHLYPFIQEHANVSLIILGDLQLTTSDELDKLAQFCDLWFIHGNHDSKTVSAYEALWGTKWKSRNLHGKVVDIQGIKIAGLGGVFRGQIWMPPNKPLFFDHIHYCQYAPPEKIWRGGIPLRHRTSIFPSDIEALEKQKADILICHEAPKPHPLGFSVINNLATSMQVKHIFHGHHHESFDYTKRPNKNPFKITNVGFRSLCNINGNFLLIGIDDRE | not soluble
4 | MGSDKIHHHHHHMFENILWKMVKKRLIPKRKISRVHRSRKGVKRVVCVAFPLDQMFKSADDFIDALMEILQEDLPFVDLLIFPRLTGNLLAGVSPIRIENFEKLDPFYTDLLRYISKGLDVPIVAPGVETFRTSPDVLVIENGEVLHRYTLRERFAVADFGEWYAAVLRKEDTLSSKALRPLVEKNVFAFIHFDLETEENDWWKEKKGLWARSQSLEVFGIKVSPRGTFLGKTYRGKSYVSAPIPLTPNLTGFLRQDCGVKMSVDLELDLLKGKRHRIDTVKHILFRG | not soluble
5 | MGSDKIHHHHHHMNRLKKLAWGELFMLGKQGKVRYVFTSSNTAGGYCSFMPELLAGLQKIFILKGPAGTGKSSFLRLLGQSMAEQGYEVEVWLSALNPLNPEGIYLPQMEAAVVNGSLPITIDPGYPAGRAEIINLEDYRDRKAAAEKGRDILELVQRVEKHHSKAYNILKSVIQTREELRQLSARHLDNSKFNQIFQELEARLAEEEVRERHYFANAVTADGIISYIEELSTPCRKRYIFKGPEGCGKSTMIAELARKAAEKGQFLEYYHSGLEPERLLMVIISSSQTALIDIGEMEINLKPCDLLVDLGKCLSDYDCSLLGMKNSQVYRNHEAMLLQVQDELENACLAVKKIKKINASFMDYDSIDKKRMEIEQELGSELSKCFCNGIESGL | not soluble
6 | MCENTLAQQKTEEFAPVSDLRAEAYGSTVFLHWTPPYDNPMIPLSESFESGIPAIWKTIDADGDGYNWMHLTNFTGQSGLCVSSASYIGGVGALTPDNYLITPELKLPTDALVEIIYWVCTQDLTAPSEHYAVYSSSTGNNAADFVNLLYEETLTAKRIQSPELIRGNRTQGVWYQRKVVLPNDTKYVAFRHFNSTDNFWLNLDEVSILYTPLPRRAPCPHPGGYTYSVFRDGQKIASGLSALAYIDTDVPYGTQDYCVQVNYLQGDSYKVCKNIVVANSANIYGADKPFALTVVGKTIVASAFKGEITLYDIRGRLIASGCDTLRYKAENGFYLIKIQVNGTVYTEKIQIQ | not soluble
7 | MARSRGSSRPISRSRPTQTRSASTMAAPVHPQQQQQPNAYSHPPAAGAQTRQPGMFAQMASTAAGVAVGSTIGHTLGAGITGMFSGSGSDSAPVEQQQQNMANTSGQTQTDQQLGRTCEIDARNFTRCLDENNGNFQICDYYLQQLKACQEAARQY | soluble
8 | MVCSRSVSLLFTLLVGVYASTATDPIDSISTQGADILNRAKLTGQTVRQCSCSEQRVCVEEMKLQAKDCTVPCFQKFSSITSRPNDLKKCFDEKDNILEDFLTCFENRVEACVNDQHGPQIQKTDIRGIFKVTEKSIATQTNTFQTMIKPIKHILDATGDFALCVKDCFLEKNKSGFCFDRKGCQPLVAETKARQSFRACTKKMHWKREAGELCECSVQAGVDSRELRQYCAMFKLMRRRAPMRKSRG | not soluble
9 | GPGSMLRATILARGTLVKIGRGPNNVTESASNALLESLQDHGYCYIQHPFIQKTILDQLHRDCRIFFEQYVLHLHDAAAQGSLKRNNLHNYNCTQLSPYELESIKSPSGFRGYYRYVGASGIDDAIECFSVGRDDVADPAVLRRDYYKQAGWEESEYLSMISRRNPWDILLNHVNSIPASGSGIVPGMDRNDNFMSDFKDMMMAYYDLCYTVSMDVMRHISCGLGIRPSIPQGGSDPTMDFELEYFTSFHQKRDCDLQAKYYPQLGAGARLKNGVDIQNQRSAHNPDGVKVLRRKGAKTQPLVRTASTEDGDGEKDVTVRLDTHKDLSTITLLSQDSLGGLEVWDEEKASYMAVPVLEDALLVNAGLFLEKWTGGLIEATPHRVRNAKGGSSRCSIVFFALPDHDARIEPLLQQEDNPAVDAQDSFLAGDMMPAP | not soluble
10 | MITVFGLKSKLAPRREKLAEVIYNSLHLGLDIPKGKHAIRFLCLEKEDFYYPFDRSDDYTVIEINLMAGRMEGTKKRLIKMLFSELEYKLGIRAHDVEITIKEQPAHCWGFRGMTGDEARDLDYDIYV | soluble
11 | MGSDKIHHHHHHMSKWLNVGKIVNTHGVRGEVRVLSTTDFEDDRFSSGKTLYVMRPNQNERVAVTVASHRKHKNFDLLCFEGYPSINDVEAFKGGRLQVPIEDRPELGEGEFFYHEIIGCSVVTIAGEELGKVKEILSPGANDVWVVQCRRGGKDLLIPYIEQVVKQVDLEKQQITIEPMEGLLE | not soluble
12 | MSEEISLSAEFIDRVKASVKPHWGKLGWVTYKRTYARWLPEKGRSENWDETVKRVVEGNINLDPRLQDSPSLELKQSLTEEAERLYKLIYGLGATPSGRNLWISGTDYQRRTGDSLNNCWFVAIRPQKYGDSKIVPSYLGKQEKAVSMPFSFLFDELMKGGGVGFSVARSNISQIPRVDFAIDLQLVVDETSESYDASVKVGAVGKNELVQDADSIYYRLPDTREGWVLANALLIDLHFAQTNPDRKQKLILDLSDIRPYGAEIHGFGGTASGPMPLISMLLDVNEVLNNKAGGRLTAVDAADICNLIGKAVVAGNVRRSAELALGSNDDQDFISMKQDQEKLMHHRWASNNSVAVDSAFSGYQPIAAGIRENGEPGIVNLDLSKNYGRIVDGYQAGIDGDVEGTNPCGEISLANGEPCNLFEVFPLIAEEQGWDLQEVFALAARYAKRVTFSPYDWEISREIIQKNRRIGISMSGIQDWLLTRLGNRVVTGFKDDFDPETHEAIKVPVYDKRAIKMVDQLYKAVVKADQDYSKTLGCNESIKHTTVKPSGTVAKLAGASEGMHFHYGAYLIQRIRFQDSDPLLPALKACGYRTEADIYTENTTCVEFPIKAVGADNPNFASAGTVSIAEQFATQAFLQTYWSDNAVSCTITFQDSEGDQVESLLRQYRFITKSTSLLPYFGGSLQQAPKEPIDKETYEKRSQEITGNVEEVFSQLNSDVKDLELVDQTDCEGGACPIK | soluble
13 | MGSDKIHHHHHHAQETLRENNGEPTLVERLSNGEIKINSAEMNFQLFTSANAEFVGNELDGMNFKLNRVRLEIKGDVGKWLGYHYRQSFNKYSDPYSLDNLSSSLELAYVNLKARPNLNFTIGKQFVNFGGYEYYVNSIRVREFSEFNNLLTAYQAGISGNWQVSPDHELCFQIVNNRNGNDEDIYPTGLPEGTAKAKIPFMYTVNWNSYYLDKSLQLRYATAVGQQTRKRYSYYFTCGNTYEKGPLLTYLDVMYTRQGIDQHGVVSRLPGTPHTAMNTEYLSIIGDVDYRVHPQWNVYVKGAYETARVYKGNGDFRKGMYRRSWNAQSSVEFFPFKQLDLFVFVLYTYRGVILEKAATRMGAIEPDTHRISLGLVYSIPVF | not soluble
14 | MIPDFQTLMLPLLKCVSDGQEHKYRDIIEHLAAEFEVTDEERKELLASGSKAVFDNRVGWARTYLKKAGLLDSPKRAILIISDLGREILSKNPPKIDTKYLRRFPAFIEFQNGYRNDGETEEESITEKIHEQTPEEVLDKAYQRIRKSLASELLNKVIDLSPAFFERLVVELLVKMGYGGSIKDAGKALGKSGDEGIDGTIKEDKLGLDIIYIQAKRWRPGNVVGRPELQKFVGALAGQGAKKGIFITTSNFTKEALTYTPRNETKIVLIDGEQLTQLMIDYNLGCTTQQTYELKKLDSDYFGEE | not soluble
15 | MGSDKIHHHHHHLYINKRPIFLVHGLWNNPKLFEKLIKKINEDDYELYRPHLPHKYGKTSLKRLALDLDSKIEELVGPEIEIDIVGFSMGGLISRFWLQNHDGFLRTKRFFSIGTPHFGTYTAQMIPSFLMPGIAEMKRGSRLLSLLNNDLTSLEKVECTSFFTKWDLMSFPGWQAKLSIGESYHLPVLTHKELITNSSSLDILVKKIFKNS | not soluble
16 | MSLQTSPDMFINRELSWLRFNSRVLDQCSKNLPLLEKLKFIAIYCTNLDEFYMIRVAGLKQLFSAGVNASSSDEMTPLQQLKAIRKYLHQEKELLERYFNEITSELEKENLFIKHYENLDENLKQKCDEYFFSNIFPVIVPIAVDATHPFPHLNNLSFSLAVKICDKAHPELVKFGMIRIPRVLPRFYEVSANIYVPIESIVHQHAEEIFPGYKLLASAAFRVTRNADMVIEEEEADDFMMILEQGLKLRRKGAFVRLQIQKDADEQIVEFLNTHMKIFHKDVYEYSILLNLPSLWQIAGNKTFTHLLSPLYTPKTLPPFDENLSIFDAVEKEDILIIQPFESFDPVYKFIKEASKDPEVISIRMTLYRVEKNSNIVQALIDAASDGKQVTVMVELKARFDEENNLHWAKALENAGAHVIYGITGFKVHAKVSQVIRKQGDKLKFYMHLSTGNYNASSAKIYTDVSYFTSKAEFARDTTSFFHILSGFSKNRRLQTLSMSPNQIKEKVLEMIRIETSKKNEGVIVAKMNSLVDSDIIQALYEASMEGVQIDLIIRGICCLKPDEEYSKNIRVRSIIGKYLEHARVFYFKHSEPNYFISSADWMPRNLERRLELMTPIYDERSKAKLAQFLRLQLSDNVLAYELKNNGEYEKIPSSEKIIDSQQTLEEYVSKIYKTLKKDTDQSRATHLASKLFKENEGHHHHHH | soluble
17 | MDCLNIEELTRIIIKEIRDYEEKEGVKSRRKIEVPINVSARHVHLSEEHMEALFGKGYTLTPIRDLMQPGEFAAKETVIIVGPKGILPSVRILGPARKRTQVEVSKTDCYTLGIEAQVRDSGNHEGTPGCIIVGPMGAVKLEEGVIVAMRHVHMPKNLAEKIGIKDKNLLKVEVGEERKLIFENVLARVSEKFVLEMHVDTDEANAAGIKNQAKGYILL | not soluble
18 | PLTEAQKNKLRHLSVVTLAAKVKCIPYAVLLEALALRNVRQLEDLVIEAVYADVLRGSLDQRNQRLEVDYSIGRDIQRQDLSAIARTLQEW | not soluble
19 | AHHHHHHGSILKMLESRGITLERMVETALELYIGEKRDAIKEKVRELMLHYLEDINVQALLMAALMLEEKFNVEGDPVNLVADELIGIDIAEYIGGKMALFNFFYYDTKKPGILRELPPFLDDAIGGFIAGCMTLLFHIPQKNSNGGNL | soluble
